From PMC2654577
Where two headings read alike, the source gives them in different places.

Tests used:
Assay in all cases: enzyme inhibition kinetics
[1] = target: full-length factor XIa autolysis loop variant fXIa-144-149A (human)
[2] = target: factor XIa catalytic domain R173A (human) (UniProt P03951)
[3] = target: factor XIa catalytic domain K175A (human)
[4] = target: full-length factor XIa autolysis loop variant fXIa-144-149A (human); remark: listed apart in the source
[5] = target: factor XIa catalytic domain K179A (human)

k2 (second-order inhibition rate constant) [1]: 600 M⁻¹ s⁻¹
k2 (second-order inhibition rate constant) [2]: 9100 M⁻¹ s⁻¹
k2 (second-order inhibition rate constant) [3]: 7300 M⁻¹ s⁻¹
k2 (second-order inhibition rate constant) [4]: 19500 M⁻¹ s⁻¹
k2 (second-order inhibition rate constant) [5]: 8800 M⁻¹ s⁻¹
B1: C1-inhibitor (natural protein)
chain: NPNATSSSSQDPESLQDRGEGKVATTVISKMLFVEPILEVSSLPTTNSTTNSATKITANTTDEPTTQPTTEPTTQPTIQPTQPTTQLPTDSPTQPTTGSFCPGPVTLCSDLESHSTEAVLGDALVDFSLKLYHAFSAMKKVETNMAFSPFSIASLLTQVLLGAGENTKTNLESILSYPKDFTCVHQALKGFTTKGVTSVSQIFHSPDLAIRDTFVNASRTLYSSSPRVLSNNSDANLELINTWVAKNTNNKISRLLDSLPSDTRLVLLNAIYLSAKWKTTFDPKKTRMEPFHFKNSVIKVPMMNSKKYPVAHFIDQTLKAKVGQLQLSHNLSLVILVPQNLKHRLEDMEQALSPSVFKAIMEKLEMSKFQPTLLTLPRIKVTTSQDMLSIMEKLEFFDFSYDLNLCGLTEDPDLQVSAMQHQTVLELTETGVEAAAASAISVARTLLVFEVQQPFLFVLWDQQHKFPVFMGRVYDPRA
